These results are taken from patent publication US6399747 (Amgen, dated 2002).

The target of assay [1] is T1, mPAL cDNA clone from the yeast two-hybrid screen, fused to the GAL4 transcription activation domain (yeast; mouse, UniProt Q9Z179 16-668).
T1 construct: Eleven clones were isolated (3 from T-cell, 8 from embryo library); As an in-frame fusion it may start at residue 11; also called GAL4-cDNA fusion; GAL4-TA fusion
T1 sequence: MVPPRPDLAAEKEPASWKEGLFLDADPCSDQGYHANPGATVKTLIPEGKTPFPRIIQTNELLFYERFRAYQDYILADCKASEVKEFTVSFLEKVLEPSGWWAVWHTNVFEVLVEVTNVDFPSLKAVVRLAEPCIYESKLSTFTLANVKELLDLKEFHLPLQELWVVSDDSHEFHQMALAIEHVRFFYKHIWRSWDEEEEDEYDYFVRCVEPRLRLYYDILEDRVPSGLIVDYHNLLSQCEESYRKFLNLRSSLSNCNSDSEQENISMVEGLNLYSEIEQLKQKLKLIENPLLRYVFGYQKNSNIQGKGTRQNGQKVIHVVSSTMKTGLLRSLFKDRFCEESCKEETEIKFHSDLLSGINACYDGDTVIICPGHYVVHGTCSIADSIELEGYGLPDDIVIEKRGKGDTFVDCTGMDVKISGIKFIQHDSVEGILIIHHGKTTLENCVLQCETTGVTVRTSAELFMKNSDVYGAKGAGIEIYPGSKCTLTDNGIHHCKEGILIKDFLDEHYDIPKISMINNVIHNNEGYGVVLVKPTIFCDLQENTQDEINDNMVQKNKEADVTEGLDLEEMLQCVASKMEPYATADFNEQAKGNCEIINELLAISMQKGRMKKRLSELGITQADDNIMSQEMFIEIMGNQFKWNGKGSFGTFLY
The assay is described as follows: yeast two-hybrid.

Assay [2] addresses T2, mPAL (amino acids 11 to 648) expressed in 293T cells from pcDNA3.1-mPAL (mouse, UniProt Q9Z179 11-648).
T2 sequence: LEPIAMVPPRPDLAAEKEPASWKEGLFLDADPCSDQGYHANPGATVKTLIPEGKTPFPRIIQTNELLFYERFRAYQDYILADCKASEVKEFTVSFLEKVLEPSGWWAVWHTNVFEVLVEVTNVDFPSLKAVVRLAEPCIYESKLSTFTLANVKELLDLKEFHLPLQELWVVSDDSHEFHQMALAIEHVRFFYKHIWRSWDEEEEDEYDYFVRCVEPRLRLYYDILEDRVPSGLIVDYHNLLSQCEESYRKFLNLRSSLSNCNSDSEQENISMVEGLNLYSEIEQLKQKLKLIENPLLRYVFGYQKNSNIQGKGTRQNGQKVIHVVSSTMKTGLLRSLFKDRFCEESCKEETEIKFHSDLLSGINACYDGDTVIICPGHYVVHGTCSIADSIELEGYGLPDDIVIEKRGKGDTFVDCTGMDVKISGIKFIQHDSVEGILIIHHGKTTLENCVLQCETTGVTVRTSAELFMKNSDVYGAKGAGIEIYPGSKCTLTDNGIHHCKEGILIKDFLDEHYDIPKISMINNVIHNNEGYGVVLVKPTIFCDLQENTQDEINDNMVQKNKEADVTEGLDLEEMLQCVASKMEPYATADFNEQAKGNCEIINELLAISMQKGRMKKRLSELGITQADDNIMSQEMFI
The assay is described as follows: GST pull-down from 293T-mPAL lysate, anti-mPAL immunoblot. The method, then:
To examine the specificity of the mPAL-Shc SH2 interaction, a series of GST-SH2 fusion proteins generated from several signal transduction molecules were tested for their ability to precipitate mPAL. A panel of GST-SH2 fusion proteins generated from several signal transduction molecules (Shc PTB domain, Blaikie et al., *J. Biol. Chem.* 269:23031–32034(1994), Shc SH2 domain, Pellici et al., *Cell* 70:93–104 (1992), Grb2 SH2 domain, Rozakis-Adcock et al., *Nature* 360:689–692 (1992), Vav SH2 domain Margolis et al., *Nature* 356: 71–74 (1992), N-terminal SH2 domain of ras-GAP, N-terminal SH2 domain (p85-N) and C-terminal SH2 domain (p85-C) of p85 subunit of PI-3 kinase, N-terminal SH2 domain (PLCγ-N), and C-terminal SH2 domain (PLCγ-C) of phospholipase C-γ1 Anderson et al., *Science* 250:979–982 (1992), Ellis et al., *Mol. Cell Biol.* 12:991–997(1992), and Nck SH2 domain, Lehman et al., *Nucl. Acids Res.* 18:1048 (1990), were immobilized on glutathione-Sepharose beads.
On the technique in general: A western blot detects proteins with antibodies after separation by electrophoresis.

B1: PTB domain of p52 Shc (yeast two-hybrid construct) (other, UniProt P29353-2 1-209, looked up)
chain: MNKLSGGGGRRTRVEGGQLGGEEWTRHGSFVNKPTRGWLHPNDKVMGPGVSYLVRYMGCVEVLQSMRALDFNTRTQVTREAISLVCEAVPGAKGATRRRKPCSRPLSSILGRSNLKFAGMPITLTVSTSSLNLMAADCKQIIANHHMQSISFASGGDPDTAEYVAYVAKDPVNQRACHILECPEGLAQDVISTIGQAFELRFKQYLRNP
notes: domain: PTB; Construct is not described
For B1, in assay [1], the binding result is “no binding”.

B2: GST-Nck SH2 (amino acids 281-377 of human Nck) (other, UniProt P16333 281-377, looked up)
chain: PWYYGKVTRHQAEMALNERGHEGDFLIRDSESSPNDFSVSLKAQGKNKHFKVQLKETVYCIGQRKFSTMEELVEHYKKAPIFTSEQGEKLYLVKHLS
notes: range 281-377; not shown: glutathione S-transferase (GST)
For the molecule B2, the binding result in assay [2] was “no binding”.

B3: CH1 domain of p52 Shc (yeast two-hybrid construct) (other, UniProt P29353-2 230-377, looked up)
chain: EEEEPPDHQYYNDFPGKEPPLGGVVDMRLREGAAPGAARPTAPNAQTPSHLGATLPVGQPVGGDPEVRKQMPPPPPCPGRELFDDPSYVNVQNLDKARQAVGGAGPPNPAINGSAPRDLFDMKPFEDALRVPPPPQSVSMAEQLRGEP
notes: domain: CH1; Construct is not described
Take B3: the binding result in assay [1] is given as “no binding”.
